For one substance, Kd results are on record in publication doi:10.1101/2025.09.30.679617.

The target of the test is PfCSP junctional peptide 21 (Plasmodium falciparum) (UniProt Q7K740). Nature of the test: BLI. (In general: In BLI a coated tip is dipped into the sample, and binding shifts an interference pattern.)

Consider CIS43 mAb, for which the Kd (as a rule, a measure of binding affinity in units of concentration) stood at 0.021 µM.
